The test system of the data set is ATP. The data set is described as follows: switch fluorescence ratio, 500 uM ATP over buffer (Cy3 cluster intensity, sum of 5 cycles each) (fold (ratio)); higher = stronger signal-on switching upon ATP binding; sequences stand for … in TCGTCGGCAGCGTCAGATGTGTATAAGAGACAGTTTTTTTTTTTTTTTTTTTTTTTTT…TC. The settings on record: aptamer strand: ATP DNA aptamer (quencher-CACCTGGGGGAGTATTGCGGAGGAAGG + anchor), 100 nM annealed; ATP concentration: 500 uM. The method in brief: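 Values give the fluorescence ratio for each switch-domain sequence, averaged from per-cluster ratios of summed target-cycle to summed buffer-cycle Cy3 intensity. The Cy3-labelled switching-strand clusters sat on a modified Illumina MiSeq flow-cell, were annealed to 100 nM quencher-labelled ATP aptamer, and were imaged in selection buffer, then after 15 min with 500 uM ATP at 22 °C. Five cycles ran with NaOH stripping and re-annealing between them, and clusters outside 100-1000 RFU were excluded.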

± gives the standard deviation of the averaged measurements.
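Further: ATP exposure 15 min at 22 °C before imaging.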

Take GGCGGTAGAG: the switch fluorescence ratio stood at 1.012 ± 0.0091.

Consider TGGTATAGGG, for which the switch fluorescence ratio is 1.01 ± 0.024.

GTTTTATGAG: the switch fluorescence ratio was determined as 0.959 ± 0.014.

For the sequence TTCTGGGGGC, the switch fluorescence ratio was 1.05 ± 0.064.

On to GATTGGGCTG, for which the switch fluorescence ratio stood at 0.984 ± 0.056.

In the case of ATTATATGCG, the switch fluorescence ratio was determined as 0.992 ± 0.0024.

For TTGGTGAGAG, the switch fluorescence ratio is 0.997 ± 0.019.

Take AAGAGGTGTT: the switch fluorescence ratio worked out at 1.04 ± 0.071.

With TCAGGCGGGC, the switch fluorescence ratio came out at 1.015 ± 0.0058.

With GTCGCCGGGT, the switch fluorescence ratio is 0.994 ± 0.026.

Take ACATGTTAGT: the switch fluorescence ratio is 1.006 ± 0.0028.

As for ACGGTCATAT, the switch fluorescence ratio came to 1.08 ± 0.027.

CGTTCTGGTC: the switch fluorescence ratio was 0.999 ± 0.046.

As for CGACGTGAGT, the switch fluorescence ratio amounted to 1.036 ± 0.0042.

For ATTCGTATTT, the switch fluorescence ratio was 0.987 ± 0.029.

As to TTGTATGGGT, the switch fluorescence ratio came out at 0.98 ± 0.019.

Consider GGTTTGGGCT, for which the switch fluorescence ratio was 0.983 ± 0.051.

Regarding TAGAGGTAGG, the switch fluorescence ratio turned out to be 0.979 ± 0.018.

On to GTTTGCCTCT, for which the switch fluorescence ratio turned out to be 0.995 ± 0.012.

Turning to ACAGTTGGGC, the switch fluorescence ratio was 0.9946 ± 0.004.

GGGGCATGGC: the switch fluorescence ratio amounted to 1.02 ± 0.028.

As to GCCTTATTTT, the switch fluorescence ratio was 1 ± 0.027.

Regarding TATTAAGTGC, the switch fluorescence ratio came to 0.955 ± 0.039.

Turning to CGAGTAGGTT, the switch fluorescence ratio is 1.01 ± 0.011.

On to GTTAGGGTAT, for which the switch fluorescence ratio worked out at 0.9975 ± 0.004.

In the case of ATTGAAGGAG, the switch fluorescence ratio came out at 0.994 ± 0.023.

Turning to GGGGATGTTA, the switch fluorescence ratio was determined as 1.01 ± 0.026.

For ATTGCTAAGC, the switch fluorescence ratio amounted to 1.039 ± 0.0054.

On to TCCGGCGGCC, for which the switch fluorescence ratio worked out at 1.09 ± 0.024.

As for TTCACTAGTG, the switch fluorescence ratio amounted to 1.02 ± 0.035.

Turning to TAGGCGGTTT, the switch fluorescence ratio came to 0.9641 ± 0.00067.

GGGTTTTGTT: the switch fluorescence ratio came to 1.02 ± 0.029.

GATGAGTTAG: the switch fluorescence ratio amounted to 0.973 ± 0.017.

On to ATCTATGTGG, for which the switch fluorescence ratio came to 0.982 ± 0.035.

Turning to AGCGATAGTA, the switch fluorescence ratio was 1.07 ± 0.019.

Regarding GAAAGTGAGA, the switch fluorescence ratio was 1.01 ± 0.056.

As for GGGGATCGCG, the switch fluorescence ratio stood at 0.986 ± 0.033.

On to ATTCAAAAAT, for which the switch fluorescence ratio is 1.04 ± 0.016.

As for GTCTAGGGGG, the switch fluorescence ratio came to 1.05 ± 0.089.

As for TAGAAAGTTG, the switch fluorescence ratio was 0.953 ± 0.083.

As for GGGGTTGCGT, the switch fluorescence ratio worked out at 0.996 ± 0.034.

In the case of GCAGAGGGCA, the switch fluorescence ratio was found to be 1.01 ± 0.049.

With CATGTTCTTT, the switch fluorescence ratio is 0.999 ± 0.026.

Take ACCCGTACTT: the switch fluorescence ratio is 1.15 ± 0.033.

Regarding TCCGTGGGGG, the switch fluorescence ratio was 1.09 ± 0.14.

On to TGTTTGAAGA, for which the switch fluorescence ratio was determined as 1 ± 0.028.

For GACACGGGGT, the switch fluorescence ratio came to 1 ± 0.071.

With TAGAGAAAAT, the switch fluorescence ratio was determined as 0.964 ± 0.053.

As for TTGAGTGAGC, the switch fluorescence ratio worked out at 0.988 ± 0.025.

Consider ATCGTCCCGA, for which the switch fluorescence ratio worked out at 1.05 ± 0.039.

In the case of ATTTGAGTTG, the switch fluorescence ratio worked out at 0.965 ± 0.01.

As to GAGGTTGTAG, the switch fluorescence ratio was 0.994 ± 0.021.

For ATAAATGCGT, the switch fluorescence ratio is 1.002 ± 0.0031.

With GGCGTATATC, the switch fluorescence ratio came to 1.02 ± 0.023.

Take GATATATTCG: the switch fluorescence ratio was determined as 1 ± 0.016.

As for TGATATTTTA, the switch fluorescence ratio is 0.986 ± 0.035.

For the sequence TGATGGGCGT, the switch fluorescence ratio was 0.9801 ± 0.0016.

With CAATCTTTAA, the switch fluorescence ratio came to 1.02 ± 0.034.

Regarding TTAGGCCGAG, the switch fluorescence ratio is 1.04 ± 0.022.

For the sequence TCCGTGTGGG, the switch fluorescence ratio came out at 1.04 ± 0.028.

Turning to TATAAGTTAT, the switch fluorescence ratio is 0.993 ± 0.029.

For AGGTTTGTGG, the switch fluorescence ratio came to 0.976 ± 0.023.

AGCTAGTCGC: the switch fluorescence ratio was determined as 1.01 ± 0.027.

Regarding CGCAGTTTTA, the switch fluorescence ratio came out at 1.055 ± 0.0065.

Take AAATCTGTAG: the switch fluorescence ratio amounted to 0.9849 ± 0.002.

As for CGATGTAGTA, the switch fluorescence ratio came to 1.016 ± 0.0058.

For the sequence GGGTACAGAT, the switch fluorescence ratio is 0.986 ± 0.0099.

As for TCATGACTTT, the switch fluorescence ratio turned out to be 1.012 ± 0.0038.

In the case of GCTCTTGTGC, the switch fluorescence ratio was 1.008 ± 0.0034.

On to GGGGGGACCG, for which the switch fluorescence ratio was found to be 0.987 ± 0.032.

As to GCTAAAGGTA, the switch fluorescence ratio was determined as 0.986 ± 0.011.

CCAGCGCACG: the switch fluorescence ratio is 1.541 ± 0.014.

In the case of AGTAAGAGAA, the switch fluorescence ratio is 0.995 ± 0.023.

Turning to TTCAGCTGGG, the switch fluorescence ratio is 0.998 ± 0.022.

For the sequence AAAGGGTTCT, the switch fluorescence ratio amounted to 0.994 ± 0.04.

Take AAGTCTACG: the switch fluorescence ratio turned out to be 1.04 ± 0.03.

Regarding TTTTTTGCCG, the switch fluorescence ratio stood at 1.05 ± 0.14.

TATGTGATCT: the switch fluorescence ratio came out at 0.9762 ± 0.0052.

Consider AAGTTCTTTA, for which the switch fluorescence ratio stood at 1.02 ± 0.022.

Source of the values: the supplement of paper PMC10126150.
